This note sets out measurements from a protein production outcome set (Wang et al. 2014).

This series can be described thus: label from the status in PepcDB records.

“MDGSFVQHSVRVLQELNKQREKGQYCDATLDVGGLVFKAHWSVLACCSHFFQRIYGDGTGGSVVLPAGFAEIFGLLLDFFYTGHLALTSGNRDQVLLAAKELRVPEAVELCQSFQPQTSVGQAQSGLGQPASQDVKSHLKEPTDLDEEEVFKTLSLASVDQEPRDTEQPQLGTPAQSSTAFLCGKLTQALKPSPSEDKESEDCKEPPRPFEAGGAPLQGESNEWEVVVQVEDDRDGDYVSEPETVLTRRKSKVIRKPCAAEPALGAGSLTAEPTDSRKGAAVPVECPTCHKKFLSKYYLKVHNRKHTGEKPFECPKCGKCYFRKENLLEHEARNCMNRSEQVFTCSVCQETFRRRMELRLHMVSHTGEMPYKCSSCSQQFMQKKDLQSHMIKLHGAPKPHAVSASQGWGSGGSGTAQSCPHLDVLPLPVSPTCSAPLVPSASCLGRSYSCTRLLSIVEKSSLCVRNAGTGPRAATGCRCTSRPSTGMKGLMSVSSAAMPSPRRPTSTCTCARTPARSLSSATSVGRPSAPKFGQAQPHPHGREAFQL”: the protein production entry is given as “not failed”.

On to “MDGVLKGFFVVSIVLLIGYILGKTKALGPEGSKVLSTLTFMVGLPCLMFSAIASRHINDVLSATGLISVVTAVAVMLVFTVAGTIARWGVRRTTIGALSVGIVNSTNLGVPLSLYILGSATYVTPIMLFQLAIVTPIALTILDLTDPAGKKVSVWRTLSIPFRNPVTVAAILGVLVSALGIQLPSLVLDPLALVAQLAVPLMLIIFGMSLHGLSVRPGIDDRVPTTIAVILKSAIQPVLAWVLAAFVFQLDPFSTFVVTACAILPTGQNVVLYSVRYGVGQGIAQSTAVFTSILAVPLLLGAAWLFG”, for which the protein production result is “failed”.

On to “MDGYNIFIVLLAVYIAGLVAIGWYFNKKQKSVTDFWLAGRRIGPSALGFSAAASWLTAGGILAVIGYYMLQGMGSIWAFVAPNILALLIIALLVGKIKNLPAITQPELLEQRYGSAVRWPIALIITVVMILFAVADVTGFSLVLQVFYGVDPLYAAAIVAIAVSLYVTMGGLSAVVWTDVVQFAFLSIFTIAMAFAAVGTVADGGLNTPAISSSELFGNVSYDWWNPLSIGIPMVLIFVFAIIPGWITEQDPWQKVWAAKDAKSARLGMVFGSLMITVVFAACAVIAIAFNNIYPDIAGMGFPAGMAQAEPALLAFVSERFVSAPLIVALSAIGLAAASMSCADTFATSGASCISRDIFQRYIKPDATMKEMLVVNRISVLIIVLAATAGSFVIPNIIDAIHIATFIASASYFFPLMGGLYWKRATKEGAFAGMVVGFVVQVTLVSLDLIKTPPMAANYLESVHPALMSHGVIVGMGLSAIAFFGVSLMTKPSSRINLAPFFEEEAEELAHYEAREIDEKDPTYGAFLKNVDEKVAGERAHLQLNLRASGALSWHELVEKLKSSSPAWVTPTGLDSVYRLTHGDMLACVTVTRGSEERDIWLKAEPRLETVGRQKKELFTAYEELKKVLGQKGVNLDFY”, for which the protein production entry is “failed”.

Turning to “MDGYTGSHVVRCALRLAPLVFVRPGELRKAEWKDIDLDGGEWRYTVTKTNTPHIVPLSTQAVEILKELQALTGRSRFVFPGARTNGRPMSDNAILAALRRMGIDKEEMSGHGFRAMARTILDEVLGVRPDFIEHQLAHSVRDPLEHHHHHH”, the protein production result is “failed”.

Take “MDIKDLMKKWSEQAENMRMFHMQELKENGSEWKKLLQENLKDCKGKKVLDAGCGTGFLAILLAQDGWEVTAIDSSEAMLEEGKKTAEELGLSDKITFLLKDAHSTDFPEHLFDAVVSRHASWLFTAPETVYKEWKRILKPGGIMLNIDANWLKPIWNTDEFEKFKSYEAELVKQYGEFRDYYHDEQMINILKKFPLAYINRPEWDEKMLKKIDFKEIASRLLSKEKYMDAFQAARYKTIPMFVIKAKNIE”: the protein production result is “failed”.

For the sequence “MDIKKIAQDDKSLGIDESNKDLFQDGILNIALFGVDSREHDNVGRSDSIIIATIDTKHDKIKLTSLMRDSYVEVDGHGKTKLTHAYAYGGPTLALKTINENFGLDIKDYVTVNFDNLAEIIDDLGGVPINIKPYEVKEVNNYAKNVAEIAGREYTPVSEGEQVLNGAQAVGYSRIRYVGDGDYERTERQRNVLDAIIKKLSALKPSEYPETIKKLLPYVETNLTPSKILSIATSVASTGIPPVENMRFPLDGYCKGEMIDGVWYLTFDEAKTKEQIQDYIYKDVNPKLEHHHHHH”, the protein production result is given as “failed”.

With “MDILKLLMVAILIGLTAFFVAVEFAIIKVRSSRIDQLVSEKRRGALAAKKVTSNLDEYLSACQLGITITALGLGWLGEPTIKHLLEPLFLKLNLSPAIASTVSFIIAFAVITFLHVVIGELAPKTFAIQRAEQVSLLLSKPLIYFYRIMYPFIWALNGSARLVTGLFGLHPASEHEVAHSEEELRLILSESYESGEINQREFKYVNNIFEFDNRVAKEIMVPRTEVIGLYEDEPFETHIKIIAQEKYTRYPVFGEDKDEIIGMVNVKDLFIRYIDGNRDEECSITPYTRPVIEVLENIPIHDLLLQMQRKHIPLAVLYDEYGGTAGIVTLEDILEEIVGEIRDEYDEDEHPPIEHISEGCKIVEGKVLISEVNDLFGIHLIADDVDTIGGWIMVQKQIVAEGDIIEKHGFSFKVLEKDMHQIKRVEIKKVEE”, the protein production entry was “failed”.

On to “MDIMNVYKRGNTFQYDFYFKGKRYRKSGYLTKRDAQIAMNIKLNDLLEGYDTDNNLTFVDFYYRWLEITKLDIINDTSYKRYITAIKAFKDCFGNKLISDIDSLSYQKFLKDYGRGHFLNNGQLRPRTSNTVSKMNNCLKQAFESAVEQGYIKKNPAKNAKPFGLKSSQSIDDKFMSITQMKNLIHYVKKNDALSHLCIYILIITGSRFKPVQHLRYEDLNFKKSCIHLNDTKNKYSKRNVKVRIKDLEYIQSVINKHPINQNGYIFHNFINFISYSAINDVLVRFCLKYKYDKYTLKSLRHTHCSYLLAKGISIQYISKRLGHADIHTTLKIYSHLIKEFEDSENSLIEKNLNDLFSD”, for which the protein production entry is reported as “failed”.

On to “MDKHNEEHIYVAIDLKSFYASVECRERGKDALTTNLVVADPTRTEKTICLAVSPALKAYGIPGRARLFEVVQRVKEVNKLRLSKLMASGHAAGTVERRKKYVTEIDIAENDITESTMAGFDYASYNANLLDAHPEYELTYIVAPPRMALYMDYSTRIYNIYLKYIAPEDISVYSIDEVFMDVTHYLRTYHMTARELASKMIDDVLKDTGITATCGIGTNLYLCKIAMDIMAKHAMPDERGVRIAELNENSYRRKLWDHRPITDFWRVGAGYAKKLEAAGMYTMGDVARCSTGGSNDFYNEEKLYKMFGINAELLIDHAWGYEPVTIADIKAYRPQTNSISSGQVLQEPYDYEKTKLIVREMTDLLVLDLVDKRLVTDQIVLTIGYDIANLSNKADSCLGNNYDHAVNNKGRDSIGGKKGTHRDYTGEITIDRYGRKVPKHAHGTANLGRYTSSTRIIMDAVMELYDRIIDPSLLTRRITVVANRVCDESKVQESEQFEQLDLFTDYQARAKEKKKEDEALSKERKLQEAMISVKKKYGKNAMLKGMNLEEGATTISRNNQIGGHKA”, for which the protein production result is listed as “failed”.

Regarding “MDKIGMTNQITGVISKFDTNIRTIVLNAKDGIFTCNLMIFVKNTDKLTTLMDKLRKVQGLEHHHHHH”, the protein production result is “failed”.

Consider “MDKIHAMQLFIRVADLESFSRAAETLALPKGSVSRQIQALESHLGVRLLHRTTRRVQLTQDGMVYYERAKDLLSNLDELDGMFQHDPASISGRLRVDMPVGFAKKMVIPHLPTFLQQYPGIELELSSSDRQVDVIREGFDCVVRVGALKDSGLIARPLGKLTQINCASPDYLARFGYPQSLEDLADHALIHYASTLGVRPPGFEVMIDGAVRWVKTGGILTVNSTETYQAACIAGLGIIQVPRTGVREALRAGDLIEILPQYRAEPLPVSLIYPHRRNLSRRVNLFMEWLGGLMKAYVD”, for which the protein production result is listed as “failed”.

Take “MDKKAMWDRFYTENGSKGQFKNFEWFFGFPSVKDLVLPALQAMSCSHSGPLHILDMGCGTSALGPCIYSTSPCAVRVTCADISPVAVKLMEEHTKSTSTQPCNPSSALVFLELDCTQMTGHFKSRSLDLILDKGTTDALVRSKEGQVKAGQILRQSLQVLRPSGSFLQFSDEDPDARLIWLEREVQGAEVTADVGVQEIGELRGVSYFCYQISPRSRPHS”: the protein production result is on record as “failed”.

In the case of “MDKLRGMETFIAVVECGSFTGAASRLGLSAVMVGKYIAQLESQLATRLLERNTRRQSLTDAGRVYFDEAKRVMEQVSIAESAVERLRLAPAGTLRVSAPTSFGASVIAPLTATFLQAWPAVRVELDLTNRMVDLVDEGVDLAIRIGEIHQEDLVARYLAPYRMVICAAPAYLARYGTPGTPEDLTDHLCLSHTVWTARNEWRLPGVEGEVRWKRDAVLRCNDGYALRQAAIAGAGLLMQPEVLLADALASGSLVRVLEAWTPQPRPVHLLWRQDRRPLPKLTQFIAHLQQGMADALTTTRASE”, the protein production entry is listed as “failed”.

For “MDKNALRKQILQKRMALSTIEKSHLDQKINQKLVAFLTPKPCIKTIALYEPIKNEVTFVDFFFEFLKINQIRAVYPKVISDTEIIFIDQETNTFEPNQIDCFLIPLVGFNKDNYRLGFGKGYYDRYLMQLTRQQPKIGIAYSFQKGDFLADPWDVQLDLIINDE”, the protein production entry is listed as “not failed”.

Consider “MDKQSSAGGVKRSVPCESNEVNETMPETPTGDSDPQPAPKKMKTSESSTILVVRYRRNVKRTSPEELLNDHARENRINPLQMEEEEFMEIMVEIPAK”, for which the protein production entry is “failed”.

In the case of “MDKRRVRAIKTFGAAMETYLAHTRWADSTRAVRKHIIDRDILPVFQNRLLTEIQAEDLRILCNKVKERGAPATAVQIRDIVKQVYVYAIAHGEKVVNPADSVGPSSIALEHHHHHH”, the protein production result is “not failed”.

On to “MDKTKRKMIYETFMLILILLSLALLPYRNNFTFILNWIIWVIFTLDYLVRLYRADNKWHYVKTHPFQLIAIIPFYGGFRAARIVSFVHLLSITAMGRRYIVPIYSFFRSNGLNRFLMIFVLLVIIIPVPMVFIEPEINNYPDALWWAIVTATTVGYGDIVPVTPIGRILASIMMLFGIAFIGMITSTITNFFRAKKPTNSSTQRANKITQLISETPDLTKEEIAVVEQFLTLRKKELADENTKSDSE”, for which the protein production result is on record as “failed”.

For “MDKTQSYDIFLIAPPGLEQVLAEEATACGFDEPRVVPGGVETRGPWSEVMRANLVLRGAGRVLVRIGGFPAVHLAQLDKRARKFAWGDFLRPDRPIRVEAVSRKSKIYHAGAAKQRVERAITEELGAPISDEAEIRLMLRIERDFCTFSIDTSGEALHKRGHKEAVGKAPMRETMAALFLRQCGFDGAEPVLDPMCGSGSFVIEAAEWAAGLMPGRSRSFAFEQLAGFDAAQWQSMRNAAGAGGRPESLYSGSDRNAGAIDASRANATRAGVADFCAFHQRPVSDIRPPEGRPGLVIVNPPYGARIGDQARLRSLYGSLGKVLMDRFSGWRVGLITSEMSLARSTRLPFQAPGPVVDHGGIKVRLYQSVRLR”, the protein production result is reported as “failed”.

Regarding “MDKTYILPIPNEYQNLARELSMQSGKIYSKAVSFLKKINRKGLRIKQKTFYRYMEWWIHQKSFILHSQSKQAAYQQAWTNYTATLRKIKKAKKKNKNTSKIRLPYRNKKYNKVCFKDSAIKLEGDNLILVNMKGAERIVIDNVRIGIKPKYAELLYHADKGKYYVHVVVEIAKEQEAKKRSGKTIAIDLGVIHPMVCFDGNKVVVYNGGVLNSILRYRNKKQSLLQSKISGCQKGSKRRGKLQRAKTKLLRRLSNLIRDVLGKYTSHLIGYCVENGITTIVMGDVKGIRNSKKKSNKVASQKVHQWLFRKISKMIEQKAEFAGIEVVYVKENMTSQICPVCGSKNKPLDRNYECKSCGFRYHRDGVGAVNIYRKYTGESLVVGRLACPTGVRFKSHLRCPVEWNTHPWDKNCSTGKVA”, the protein production entry is “failed”.

Consider “MDLCRSSILLLIIALLSPRTLSMRYELKSSKTKCIGEEIHENAMSIGKYFIVNPNEDNHPLPDSHKIIVKVMPPQGKNLHEADKVEAGQFSFTAYENGSYVACITAIDYKPETTLTIDFDWKTGVHSKEWTNVAKKSQVDMMEYQVKTLMDTVISIHEEMYYLREREEEMQELNRSTNSKMAWLSFGSLVVCLSVAGLQFWHLKTFFEKKKLI”, for which the protein production entry is given as “failed”.
